# Tests used:
# [1] = system: T1, CREB1 peptide EILSRRPSYRKILND (SEQ ID NO:106)
# T1 sequence: EILSRRPSYRKILND
# [2] = system: T2, FLJ20574 peptide GENVLKKSMKSRVKG (SEQ ID NO:113)
# T2 sequence: GENVLKKSMKSRVKG
# [3] = system: T3, GABRB2 peptide QKKSRLRRRASQLKI (SEQ ID NO:84)
# T3 sequence: QKKSRLRRRASQLKI
# [4] = system: T4, LIMK-2 peptide LRRRSLRRSNSISKSPGP (SEQ ID NO:121)
# T4 sequence: LRRRSLRRSNSISKSPGP
# [5] = system: T5, M1 muscarinic receptor peptide RWDKRRWRKIPKRPGSVHRT (SEQ ID NO:155)
# T5 sequence: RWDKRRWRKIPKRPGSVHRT
# [6] = system: T6, MARCKS peptide KKKKKRFSFKKSFKL (SEQ ID NO:80)
# T6 sequence: KKKKKRFSFKKSFKL
# [7] = system: T7, NF1 peptide AGSFKRNSIKKIV (SEQ ID NO:102)
# T7 sequence: AGSFKRNSIKKIV
# [8] = system: T8, PARIS1 peptide RELEQLKAEYLERRASRRRA (SEQ ID NO:148)
# T8 sequence: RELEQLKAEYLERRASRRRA
# [9] = system: T9, SPTBN4 peptide EGGDRRASGRRK (SEQ ID NO:110)
# T9 sequence: EGGDRRASGRRK
# [10] = system: T10, calcium channel, voltage-dependent, L type, alpha peptide RDIRQSPKRGFLRSASLGRR (SEQ ID NO:147)
# T10 sequence: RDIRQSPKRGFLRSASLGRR
# [11] = system: T11, dag kinase iota peptide NRKKKRTSFKRKA (SEQ ID NO:117)
# T11 sequence: NRKKKRTSFKRKA
# [12] = system: T12, dag kinase zeta peptide RPQNTLKASKKKKRASFKRK (SEQ ID NO:118)
# T12 sequence: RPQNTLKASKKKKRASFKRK
# [13] = system: T13, gravin peptide KKFFTQGWAGWRKKTSFRKP (SEQ ID NO:154)
# T13 sequence: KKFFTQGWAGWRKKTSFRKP
# [14] = system: T14, kinesin 3C peptide LEKRGMLGKRPRRKSSRRKK (SEQ ID NO:133)
# T14 sequence: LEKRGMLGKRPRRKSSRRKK
# [15] = system: T15, nuclear RNA export factor 3 peptide VRYTPYTISPYNRKGSFRKQ (SEQ ID NO:143)
# T15 sequence: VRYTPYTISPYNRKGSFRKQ
# [16] = system: T16, peptide AARKKRISVKKKQEQ (SEQ ID NO:8)
# T16 sequence: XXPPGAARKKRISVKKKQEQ
# [17] = system: T17, peptide AKNLKTLQKRDSFIG (SEQ ID NO:53)
# T17 sequence: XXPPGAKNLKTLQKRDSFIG
# [18] = system: T18, peptide ALRRPSLRREADD (SEQ ID NO:26)
# T18 sequence: XXPPGALRRPSLRREADD
# [19] = system: T19, peptide AVNSRRRAGQKKK (SEQ ID NO:48)
# T19 sequence: XXPPGAVNSRRRAGQKKK
# [20] = system: T20, peptide EILSRRPSYRKILND (SEQ ID NO:25)
# T20 sequence: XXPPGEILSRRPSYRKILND
# [21] = system: T21, peptide GENVLKKSMKSRVKG (SEQ ID NO:36)
# T21 sequence: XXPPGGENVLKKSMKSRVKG
# [22] = system: T22, peptide GFAKKIGSGQKTWTF (SEQ ID NO:66)
# T22 sequence: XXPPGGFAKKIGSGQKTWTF
# [23] = system: T23, peptide GLLDRKGSWKKLDDM (SEQ ID NO:35)
# T23 sequence: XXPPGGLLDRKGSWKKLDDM
# [24] = system: T24, peptide GQAWGRQSPRRLED (SEQ ID NO:46)
# T24 sequence: XXPPGGQAWGRQSPRRLED
# [25] = system: T25, peptide IDYYKKTSNGRLPVK (SEQ ID NO:74)
# T25 sequence: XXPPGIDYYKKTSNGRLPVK
# [26] = system: T26, peptide IKVTHKATGKVMVMK (SEQ ID NO:65)
# T26 sequence: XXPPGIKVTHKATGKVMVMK
# [27] = system: T27, peptide KEVVRTDSLKGRRGR (SEQ ID NO:30)
# T27 sequence: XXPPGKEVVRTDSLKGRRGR
# [28] = system: T28, peptide KFARKSTRRSIRLPE (SEQ ID NO:4)
# T28 sequence: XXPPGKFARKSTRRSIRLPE
# [29] = system: T29, peptide KKKFRTPSFLKKSKK (SEQ ID NO:11)
# T29 sequence: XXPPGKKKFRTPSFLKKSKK
# [30] = system: T30, peptide KKRKKKSSKSLAHA (SEQ ID NO:27)
# T30 sequence: XXPPGKKRKKKSSKSLAHA
# [31] = system: T31, peptide KRPGKKGSNKRPGKR (SEQ ID NO:28)
# T31 sequence: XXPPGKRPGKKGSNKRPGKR
# [32] = system: T32, peptide LLGSGKVTDRKAL (SEQ ID NO:39)
# T32 sequence: XXPPGLLGSGKVTDRKAL
# [33] = system: T33, peptide LRRKHLGTLNFGGIR (SEQ ID NO:60)
# T33 sequence: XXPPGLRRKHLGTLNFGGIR
# [34] = system: T34, peptide NYLRRRLSDSNFMAN (SEQ ID NO:38)
# T34 sequence: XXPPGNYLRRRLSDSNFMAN
# [35] = system: T35, peptide RGFLRSASLGRRASFHLE (SEQ ID NO:15)
# T35 sequence: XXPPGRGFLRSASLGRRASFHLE
# [36] = system: T36, peptide RQRKRKLSFRRRTDKD (SEQ ID NO:5)
# T36 sequence: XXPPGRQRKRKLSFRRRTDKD
# [37] = system: T37, peptide WKGKRRSKARKKRK (SEQ ID NO:13)
# T37 sequence: XXPPGWKGKRRSKARKKRK
# [38] = system: T38, ribosomal protein S6 peptide AKRRRLSSLRASTSK (SEQ ID NO:120)
# T38 sequence: AKRRRLSSLRASTSK
# [39] = system: T39, slp4 peptide TYLLPDKSRQGKRKTSIKRD (SEQ ID NO:153)
# T39 sequence: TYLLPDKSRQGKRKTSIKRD
# [40] = system: T40, splicing factor, arginine/serine-rich 4 peptide RSRSRSRSKSKDKRKSRKRS (SEQ ID NO:134)
# T40 sequence: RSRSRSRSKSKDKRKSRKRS
# [41] = system: T41, titin peptide PFEVVWYKDKRQLRSSKKYK (SEQ ID NO:160)
# T41 sequence: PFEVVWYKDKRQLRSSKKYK
substance,measurement,setting,value
PKC-delta,in vitro phosphorylation (% of best substrate),[1],9
same,in vitro phosphorylation (% of best substrate),[2],4
same,in vitro phosphorylation (% of best substrate),[3],34
same,"in vitro phosphorylation, 1 uM peptide (% of best substrate)",[4],80
same,"in vitro phosphorylation, 10 uM peptide (% of best substrate)",[4],53
same,"in vitro phosphorylation, 1 uM peptide (% of best substrate)",[5],30
same,"in vitro phosphorylation, 10 uM peptide (% of best substrate)",[5],23
same,in vitro phosphorylation (% of best substrate),[6],24
same,in vitro phosphorylation (% of best substrate),[7],14
same,"in vitro phosphorylation, 1 uM peptide (% of best substrate)",[8],27
same,"in vitro phosphorylation, 10 uM peptide (% of best substrate)",[8],14
same,in vitro phosphorylation (% of best substrate),[9],5
same,"in vitro phosphorylation, 1 uM peptide (% of best substrate)",[10],27
same,"in vitro phosphorylation, 10 uM peptide (% of best substrate)",[10],13
same,"in vitro phosphorylation, 1 uM peptide (% of best substrate)",[11],100
same,"in vitro phosphorylation, 10 uM peptide (% of best substrate)",[11],79
same,"in vitro phosphorylation, 1 uM peptide (% of best substrate)",[12],73
same,"in vitro phosphorylation, 10 uM peptide (% of best substrate)",[12],60
same,"in vitro phosphorylation, 1 uM peptide (% of best substrate)",[13],26
same,"in vitro phosphorylation, 10 uM peptide (% of best substrate)",[13],14
same,"in vitro phosphorylation, 1 uM peptide (% of best substrate)",[14],46
same,"in vitro phosphorylation, 10 uM peptide (% of best substrate)",[14],52
same,"in vitro phosphorylation, 1 uM peptide (% of best substrate)",[15],33
same,"in vitro phosphorylation, 10 uM peptide (% of best substrate)",[15],32
same,in vitro phosphorylation (% of best substrate),[16],35
same,in vitro phosphorylation (% of best substrate),[17],2
same,in vitro phosphorylation (% of best substrate),[18],9
same,in vitro phosphorylation (% of best substrate),[19],2
same,in vitro phosphorylation (% of best substrate),[20],9
same,in vitro phosphorylation (% of best substrate),[21],4
same,in vitro phosphorylation (% of best substrate),[22],1
same,in vitro phosphorylation (% of best substrate),[23],4
same,in vitro phosphorylation (% of best substrate),[24],2
same,in vitro phosphorylation (% of best substrate),[25],0
same,in vitro phosphorylation (% of best substrate),[26],1
same,in vitro phosphorylation (% of best substrate),[27],7
same,in vitro phosphorylation (% of best substrate),[28],52
same,in vitro phosphorylation (% of best substrate),[29],25
same,in vitro phosphorylation (% of best substrate),[30],8
same,in vitro phosphorylation (% of best substrate),[31],8
same,in vitro phosphorylation (% of best substrate),[32],3
same,in vitro phosphorylation (% of best substrate),[33],1
same,in vitro phosphorylation (% of best substrate),[34],3
same,in vitro phosphorylation (% of best substrate),[35],18
same,in vitro phosphorylation (% of best substrate),[36],42
same,in vitro phosphorylation (% of best substrate),[37],22
same,"in vitro phosphorylation, 1 uM peptide (% of best substrate)",[38],64
same,"in vitro phosphorylation, 10 uM peptide (% of best substrate)",[38],32
same,"in vitro phosphorylation, 1 uM peptide (% of best substrate)",[39],32
same,"in vitro phosphorylation, 10 uM peptide (% of best substrate)",[39],26
same,"in vitro phosphorylation, 1 uM peptide (% of best substrate)",[40],44
same,"in vitro phosphorylation, 10 uM peptide (% of best substrate)",[40],16
same,"in vitro phosphorylation, 1 uM peptide (% of best substrate)",[41],25
same,"in vitro phosphorylation, 10 uM peptide (% of best substrate)",[41],31

# Source: patent publication US20050064507
